{"source": "patent US20240368269A1", "target": "DLL3 (target in the Fab-Zap internalization assay) (UniProt Q9NYJ7)", "sequence (Q9NYJ7 27-618 limits assumed)": "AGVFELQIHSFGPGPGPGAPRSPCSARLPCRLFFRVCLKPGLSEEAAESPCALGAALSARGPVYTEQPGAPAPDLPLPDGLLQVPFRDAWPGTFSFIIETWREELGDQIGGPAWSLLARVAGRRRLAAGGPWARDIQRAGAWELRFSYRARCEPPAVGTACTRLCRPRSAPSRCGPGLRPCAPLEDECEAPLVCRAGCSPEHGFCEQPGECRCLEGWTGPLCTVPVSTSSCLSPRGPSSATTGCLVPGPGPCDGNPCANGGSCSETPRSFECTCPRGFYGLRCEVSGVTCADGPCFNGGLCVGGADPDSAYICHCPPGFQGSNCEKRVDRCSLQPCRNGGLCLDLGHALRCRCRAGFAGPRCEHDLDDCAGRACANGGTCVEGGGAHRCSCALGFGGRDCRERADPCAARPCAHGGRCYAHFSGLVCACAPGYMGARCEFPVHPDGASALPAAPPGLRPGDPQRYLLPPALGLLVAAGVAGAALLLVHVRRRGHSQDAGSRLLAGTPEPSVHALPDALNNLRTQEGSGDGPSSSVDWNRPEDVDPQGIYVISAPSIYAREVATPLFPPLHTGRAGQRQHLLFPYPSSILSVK", "assay": "cell-based or functional assay"}
{"substance": "Rovalpituzumab Tesirine (SC16LD6.5) (antibody)", "values": [{"measurement": "Percent Max Killing (Fab-Zap internalization assay, 10 ug/ml)", "result": 96, "unit": "%"}]}
